Assay results as given in the supplement of paper PMC11196671.

Columns and labels:
[1] = BHET released, HPLC; higher = more BHET released; extreme values may be limits of the assay; details: 24 h
Procedure: (§1)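 Purified PET hydrolases, 2.5 ug enzyme on 3.5 mg amorphous PET film (aFilm) or crystalline PET powder (cryPow) in 0.5 mL of 50 mM buffer (NaCitrate pH 4.5/5.5, NaPhosphate 6.5/7.5, glycine 8.5/9.5) at 60 or 70 C with shaking for 24 h. Total aromatic product by UV-Vis (260/280 nm, blank-subtracted, normalised per mg enzyme) and individual TPA, MHET, BHET concentrations by UHPLC-DAD at 240 nm; duplicate reactions.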

[2] = MHET released, HPLC; higher = more MHET released; extreme values may be limits of the assay; details: 24 h
Procedure: as §1

[3] = PET hydrolysis product formed (TPA+MHET+BHET, UV-Vis) per mg enzyme (mmol/mg enzyme); higher = more PET depolymerisation activity; extreme values may be limits of the assay; details: 2 h
Procedure: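 Purified PET hydrolases (His-SUMO cleaved, E. coli C41(DE3) small-scale expression), 2.5 ug enzyme on 3.5 mg amorphous PET film (aFilm) or crystalline PET powder (cryPow) in 0.5 mL of 50 mM buffer (NaCitrate pH 4.5/5.5, NaPhosphate 6.5/7.5, glycine 8.5/9.5) at 60 or 70 C with shaking for 2 h. Soluble aromatic products (TPA+MHET+BHET) were quantified by UV-Vis at 260/280 nm, blank-subtracted against the no-enzyme control, and normalised per mg enzyme; duplicate reactions.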

[4] = as above; details: 24 h
Procedure: as §1

QTNPYARGPNPTAASLEASAGPFTVRSFTVARPVGYGAGTVYYPTNAGGTVGAIAIVPGYTATQSSINWWGPRLASHGFVVITIDTNSTLDKPESRSSQQMAALRQVASLNGTSSSPIYGKVDTARGGVMGWSMGGGGSLISAANNPSLKAAAVMAPWHSSTNFSSVTVPTLIFACENDRIAPVKEYALPIYDSMSLNAKQFLEICGGSHSCACSGNSNQALIGMKGVAWMKRFMDNDTRYSQFACENPNSTAVCDFRTANCS [HotPETase]
Details	BHET released, [1] [mM]	MHET released, [2] [mM]	PET hydrolysis product formed, [3]	PET hydrolysis product formed, [4]
PET substrate: aFilm, 60 °C, pH 4.5	0	0	0	0
PET substrate: aFilm, 60 °C, pH 5.5	0	0.282	0	0.126
PET substrate: aFilm, 60 °C, pH 6.5	0	0.534	0.0257	0.172
PET substrate: aFilm, 60 °C, pH 7.5	0.045	3.07	0.0712	1.02
PET substrate: aFilm, 60 °C, pH 8.5	0	0.303	0.0455	0.116
PET substrate: aFilm, 60 °C, pH 9.5	0	1.8	0.0961	0.744
PET substrate: aFilm, 70 °C, pH 4.5	0	0	0	0
PET substrate: aFilm, 70 °C, pH 5.5	0	0	0	0
PET substrate: aFilm, 70 °C, pH 6.5	0	0.0858	0.00383	0.0334
PET substrate: aFilm, 70 °C, pH 7.5	0	0.198	0.0174	0.0761
PET substrate: aFilm, 70 °C, pH 8.5	0	0.121	0.0193	0.049
PET substrate: aFilm, 70 °C, pH 9.5	0	0.077	0.092	0.175
PET substrate: cryPow, 60 °C, pH 4.5	0	0	0.00338	0
PET substrate: cryPow, 60 °C, pH 5.5	0.0125	0.43	0.0775	0.118
PET substrate: cryPow, 60 °C, pH 6.5	0.00555	0.527	0.106	0.14
PET substrate: cryPow, 60 °C, pH 7.5	0	0.655	0.131	0.195
PET substrate: cryPow, 60 °C, pH 8.5	0	0.319	0.0736	0.104
PET substrate: cryPow, 60 °C, pH 9.5	0	0.174	0.0954	0.151
PET substrate: cryPow, 70 °C, pH 4.5	0	0	0	0
PET substrate: cryPow, 70 °C, pH 5.5	0	0.163	0.05472	0.0481
PET substrate: cryPow, 70 °C, pH 6.5	0.00798	0.386	0.0748	0.103
PET substrate: cryPow, 70 °C, pH 7.5	0	0.249	0.109	0.094
PET substrate: cryPow, 70 °C, pH 8.5	0	0.268	0.0678	0.0775
PET substrate: cryPow, 70 °C, pH 9.5	0	0.0221	0.0796	0.0809

SNPYQRGPNPTRSALTADGPFSVATYTVSRLSVSGFGGGVIYYPTGTSLTFGGIAMSPGYTADASSLAWLGRRLASHGFVVLVINTNSRFDGPDSRASQLSAALNYLRTSDPSAVRARLDANRLAVAGHSMGGGATLRIAEQNPSLKAAIPLTPWHTQKTFNTSVPVLIVGAEADTVAPVSQHAIPFYQNLPSTTPKVYVELCNASHIAPNSNNAAISVYTISWMKLWVDNDTRYRQFLCNVNDPALCDFRTNNRHCQ [LCC-ICCG DAQI]
Details	BHET released, [1] [mM]	MHET released, [2] [mM]	PET hydrolysis product formed, [3]	PET hydrolysis product formed, [4]
PET substrate: aFilm, 60 °C, pH 4.5	0	0.0359	0	0.0166
PET substrate: aFilm, 60 °C, pH 5.5	0.0132	0.267	0.02083	0.125
PET substrate: aFilm, 60 °C, pH 6.5	0	0.562	0.0428	0.232
PET substrate: aFilm, 60 °C, pH 7.5	0.0548	3.69	0.0608	1.37
PET substrate: aFilm, 60 °C, pH 8.5	0.00252	0.3306	0.0525	0.167
PET substrate: aFilm, 60 °C, pH 9.5	0.0577	2.09	0.0903	0.87
PET substrate: aFilm, 70 °C, pH 4.5	0	0	0	0
PET substrate: aFilm, 70 °C, pH 5.5	0.0149	0.189	0.0394	0.0923
PET substrate: aFilm, 70 °C, pH 6.5	0.00777	0.371	0.0829	0.205
PET substrate: aFilm, 70 °C, pH 7.5	0.143	4.52	0.189	2.08
PET substrate: aFilm, 70 °C, pH 8.5	0	0.211	0.0593	0.1
PET substrate: aFilm, 70 °C, pH 9.5	0	1.54	0.241	0.859
PET substrate: cryPow, 60 °C, pH 4.5	0	0.033	0	0.0113
PET substrate: cryPow, 60 °C, pH 5.5	0.00665	0.189	0.0387	0.0632
PET substrate: cryPow, 60 °C, pH 6.5	0	0.254	0.0449	0.0902
PET substrate: cryPow, 60 °C, pH 7.5	0	0.437	0.0986	0.173
PET substrate: cryPow, 60 °C, pH 8.5	0	0.197	0.0373	0.0738
PET substrate: cryPow, 60 °C, pH 9.5	0	0.155	0.0245	0.1163
PET substrate: cryPow, 70 °C, pH 4.5	0	0	0	0
PET substrate: cryPow, 70 °C, pH 5.5	0	0.0777	0.0166	0.0244
PET substrate: cryPow, 70 °C, pH 6.5	0.00289	0.167	0.0286	0.0648
PET substrate: cryPow, 70 °C, pH 7.5	0	0.424	0.0606	0.193
PET substrate: cryPow, 70 °C, pH 8.5	0	0.164	0.0323	0.0669
PET substrate: cryPow, 70 °C, pH 9.5	0	0.0936	0.0462	0.132

QTNPYARGPNPTAASLEASAGPFTVRSFTVSRPSGYGAGTVYYPTNAGGTVGAIAIVPGYTARQSSIKWWGPRLASHGFVVITIDTNSTFDYPSSRSSQQMAALRQVASLNGDSSSPIYGKVDTARMGVMGHSMGGGASLRSAANNPSLKAAIPQAPWDSQTNFSSVTVPTLIFACENDSIAPVNSHALPIYDSMSRNAKQFLEINGGSHSCANSGNSNQALIGKKGVAWMKRFMDNDTRYSTFACENPNSTAVSDFRTANCS [DuraPETase]
Details	BHET released, [1] [mM]	MHET released, [2] [mM]	PET hydrolysis product formed, [3]	PET hydrolysis product formed, [4]
PET substrate: aFilm, 60 °C, pH 4.5	0	0	0	0
PET substrate: aFilm, 60 °C, pH 5.5	0	0	0	0
PET substrate: aFilm, 60 °C, pH 6.5	0	0	0	0
PET substrate: aFilm, 60 °C, pH 7.5	0.0050186	0.182	0	0.0929
PET substrate: aFilm, 60 °C, pH 8.5	0	0.099	0	0.0536
PET substrate: aFilm, 60 °C, pH 9.5	0	0.152	0.0223	0.126
PET substrate: aFilm, 70 °C, pH 4.5	0	0	0	0
PET substrate: aFilm, 70 °C, pH 5.5	0	0	0	0
PET substrate: aFilm, 70 °C, pH 6.5	0	0	0	0
PET substrate: aFilm, 70 °C, pH 7.5	0	0.00907	0	0.00371
PET substrate: aFilm, 70 °C, pH 8.5	0	0.00981	0	0.00439
PET substrate: aFilm, 70 °C, pH 9.5	0	0	0.0191	0.0201
PET substrate: cryPow, 60 °C, pH 4.5	0	0	0	0
PET substrate: cryPow, 60 °C, pH 5.5	0	0	0	0
PET substrate: cryPow, 60 °C, pH 6.5	0	0.0436	0	0.0167
PET substrate: cryPow, 60 °C, pH 7.5	0.00475	0.21	0.0496	0.0809
PET substrate: cryPow, 60 °C, pH 8.5	0	0.169	0.032	0.0578
PET substrate: cryPow, 60 °C, pH 9.5	0	0.123	0.0701	0.0891
PET substrate: cryPow, 70 °C, pH 4.5	0	0	0	0
PET substrate: cryPow, 70 °C, pH 5.5	0	0	0	0
PET substrate: cryPow, 70 °C, pH 6.5	0	0.0107	0	0
PET substrate: cryPow, 70 °C, pH 7.5	0	0.0884	0.0447	0.0465
PET substrate: cryPow, 70 °C, pH 8.5	0	0.0546	0.0151	0.0236
PET substrate: cryPow, 70 °C, pH 9.5	0	0	0.0191	0

SNPYQRGPNPTRSALTADGPFSVATYTVSRLSVSGFGGGVIYYPTGTSLTFGGIAMSPGYTADASSLAWLGRRLASHGFVVLVINTNSRFDGPDSRASQLSAALNYLRTSSPSAVRARLDANRLAVAGHSMGGGGTLRIAEQNPSLKAAVPLTPWHTDKTFNTSVPVLIVGAEADTVAPVSQYAIPFYQNLPSTTPKVYVELCNASHIAPNSDNAAISVYTISWMKLWVDNDTRYRQFLCNVNDPALCDFRTNNRHCQ [LCC-A2]
Details	BHET released, [1] [mM]	MHET released, [2] [mM]	PET hydrolysis product formed, [3]	PET hydrolysis product formed, [4]
PET substrate: aFilm, 60 °C, pH 4.5	0	0.107	0	0.0551
PET substrate: aFilm, 60 °C, pH 5.5	0	0.735	0.031	0.331
PET substrate: aFilm, 60 °C, pH 6.5	0	1.23	0.061	0.484
PET substrate: aFilm, 60 °C, pH 7.5	0	6.36	0.144	2.22
PET substrate: aFilm, 60 °C, pH 8.5	0	0.322	0.0742	0.195
PET substrate: aFilm, 60 °C, pH 9.5	0.0275	2.64	0.154	0.963
PET substrate: aFilm, 70 °C, pH 4.5	0	0	0	0
PET substrate: aFilm, 70 °C, pH 5.5	0.00399	0.429	0.0749	0.181
PET substrate: aFilm, 70 °C, pH 6.5	0	0.862	0.138	0.361
PET substrate: aFilm, 70 °C, pH 7.5	0.0146	8.82	0.418	2.87
PET substrate: aFilm, 70 °C, pH 8.5	0	0.253	0.09	0.171
PET substrate: aFilm, 70 °C, pH 9.5	0	2.25	0.423	0.934
PET substrate: cryPow, 60 °C, pH 4.5	0.0062	0.1017	0.0208	0.0357
PET substrate: cryPow, 60 °C, pH 5.5	0	0.24	0.0469	0.0766
PET substrate: cryPow, 60 °C, pH 6.5	0	0.476	0.062	0.152
PET substrate: cryPow, 60 °C, pH 7.5	0	0.733	0.127	0.261
PET substrate: cryPow, 60 °C, pH 8.5	0	0.261	0.0645	0.0909
PET substrate: cryPow, 60 °C, pH 9.5	0	0.281	0.0424	0.195
PET substrate: cryPow, 70 °C, pH 4.5	0	0.0080455	0	0
PET substrate: cryPow, 70 °C, pH 5.5	0	0.168	0.0282	0.0541
PET substrate: cryPow, 70 °C, pH 6.5	0	0.421	0.0641	0.139
PET substrate: cryPow, 70 °C, pH 7.5	0	0.748	0.107	0.334
PET substrate: cryPow, 70 °C, pH 8.5	0	0.293	0.0569	0.0995
PET substrate: cryPow, 70 °C, pH 9.5	0	0.189	0.0859	0.205
